Source: paper PMC9467508, “DNA passes through cohesin’s hinge as well as its Smc3–kleisin interface” (eLife, 2022)
Residue numbers refer to the chain shown, from its start.

Experiments:
Assay in all cases: cross-linking; BMOE (0.64 mM) cross-linking of engineered cysteine pairs; 0.7 uM cohesin (Smc1, Smc3, and Scc1) and Scc2 in 25 mM HEPES pH 7.5, 50 mM NaCl, 1 mM MgCl2, 1 mM TCEP, 5% glycerol; 24°C, 5 min; with or without 10 mM ATP and 60 nM supercoiled pUC19; SDS-PAGE
Details in all cases: both partners purified
[1] = molecular target: T1, cohesin (Smc1-His E1102C, Smc3, Scc1-StrepII) (S. cerevisiae, UniProt P32908 1-1225; P47037 1-1230; Q12158 1-566, E1102C)
T1 construct: Smc1, cohesin subunit, S. cerevisiae; Smc3, cohesin subunit, S. cerevisiae; Scc1 (kleisin subunit of cohesin), S. cerevisiae; Tied to the cross-linking experiment by its substitution; also called Smc1E1102C; cohesin (Smc1, Smc3, and Scc1); source: prepared as described in Collier et al., 2020 (pACEbac1i plasmid); purified; copies: + +
T1 sequence (P32908 whole entry E1102C, chain 1 of 3): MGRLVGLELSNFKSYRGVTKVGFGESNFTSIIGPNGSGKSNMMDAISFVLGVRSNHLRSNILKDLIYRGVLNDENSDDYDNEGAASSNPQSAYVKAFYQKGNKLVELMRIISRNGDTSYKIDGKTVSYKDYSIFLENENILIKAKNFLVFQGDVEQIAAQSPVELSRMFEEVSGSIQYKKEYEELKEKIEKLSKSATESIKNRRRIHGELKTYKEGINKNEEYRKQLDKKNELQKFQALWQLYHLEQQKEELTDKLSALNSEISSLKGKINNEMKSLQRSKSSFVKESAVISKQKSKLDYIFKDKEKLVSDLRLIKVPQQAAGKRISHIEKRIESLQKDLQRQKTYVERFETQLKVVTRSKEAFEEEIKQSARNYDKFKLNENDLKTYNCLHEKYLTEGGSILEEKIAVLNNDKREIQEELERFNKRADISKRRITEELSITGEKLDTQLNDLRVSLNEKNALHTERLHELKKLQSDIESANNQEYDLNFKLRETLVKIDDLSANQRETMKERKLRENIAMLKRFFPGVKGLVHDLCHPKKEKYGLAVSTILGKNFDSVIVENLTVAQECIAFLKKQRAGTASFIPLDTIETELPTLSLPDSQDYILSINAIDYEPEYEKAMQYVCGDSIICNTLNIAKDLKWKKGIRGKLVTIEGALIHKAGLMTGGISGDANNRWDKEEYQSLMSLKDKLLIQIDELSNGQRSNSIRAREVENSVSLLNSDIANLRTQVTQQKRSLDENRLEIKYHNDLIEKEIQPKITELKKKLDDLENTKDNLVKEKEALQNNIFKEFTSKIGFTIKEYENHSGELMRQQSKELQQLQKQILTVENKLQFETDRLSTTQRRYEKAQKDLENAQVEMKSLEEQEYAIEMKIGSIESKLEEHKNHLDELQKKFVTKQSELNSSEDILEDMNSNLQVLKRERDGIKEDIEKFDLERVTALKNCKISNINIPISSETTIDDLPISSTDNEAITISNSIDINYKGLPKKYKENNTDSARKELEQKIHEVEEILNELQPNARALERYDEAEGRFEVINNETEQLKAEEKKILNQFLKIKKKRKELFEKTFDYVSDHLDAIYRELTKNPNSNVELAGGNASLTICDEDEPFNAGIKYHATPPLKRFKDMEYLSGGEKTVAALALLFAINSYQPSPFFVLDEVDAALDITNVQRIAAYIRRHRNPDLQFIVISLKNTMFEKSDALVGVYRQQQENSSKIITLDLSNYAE
T1 sequence (P47037 whole entry, chain 2 of 3): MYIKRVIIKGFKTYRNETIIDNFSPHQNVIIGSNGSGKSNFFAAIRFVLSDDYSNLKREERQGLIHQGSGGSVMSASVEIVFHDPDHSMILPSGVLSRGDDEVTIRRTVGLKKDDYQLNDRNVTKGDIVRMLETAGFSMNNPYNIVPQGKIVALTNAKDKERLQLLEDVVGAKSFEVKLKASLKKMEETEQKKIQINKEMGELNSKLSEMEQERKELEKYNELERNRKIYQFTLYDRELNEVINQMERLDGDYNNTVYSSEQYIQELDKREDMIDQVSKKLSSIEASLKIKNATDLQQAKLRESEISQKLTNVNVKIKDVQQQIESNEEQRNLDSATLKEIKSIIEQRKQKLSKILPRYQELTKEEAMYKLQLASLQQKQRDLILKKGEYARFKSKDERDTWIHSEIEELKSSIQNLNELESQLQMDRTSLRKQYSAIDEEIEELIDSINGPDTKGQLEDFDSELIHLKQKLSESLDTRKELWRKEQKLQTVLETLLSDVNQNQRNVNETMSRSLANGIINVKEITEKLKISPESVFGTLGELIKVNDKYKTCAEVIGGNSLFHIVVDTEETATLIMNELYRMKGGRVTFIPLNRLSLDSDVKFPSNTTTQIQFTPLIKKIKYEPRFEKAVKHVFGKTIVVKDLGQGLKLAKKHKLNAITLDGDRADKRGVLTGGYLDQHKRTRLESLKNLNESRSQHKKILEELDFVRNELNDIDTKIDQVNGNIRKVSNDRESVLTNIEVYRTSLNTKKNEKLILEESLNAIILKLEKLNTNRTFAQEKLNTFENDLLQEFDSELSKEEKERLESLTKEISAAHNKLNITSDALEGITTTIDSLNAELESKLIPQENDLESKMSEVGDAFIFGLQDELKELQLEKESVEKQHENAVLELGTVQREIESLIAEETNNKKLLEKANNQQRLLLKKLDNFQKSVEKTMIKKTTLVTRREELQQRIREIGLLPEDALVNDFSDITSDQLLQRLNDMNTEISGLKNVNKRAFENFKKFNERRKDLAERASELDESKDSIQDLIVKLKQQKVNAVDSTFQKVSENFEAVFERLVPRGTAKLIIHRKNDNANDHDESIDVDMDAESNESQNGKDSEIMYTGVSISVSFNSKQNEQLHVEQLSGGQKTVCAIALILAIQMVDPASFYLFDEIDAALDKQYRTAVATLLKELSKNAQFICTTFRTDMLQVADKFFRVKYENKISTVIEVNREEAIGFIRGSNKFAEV
T1 sequence (Q12158 whole entry, chain 3 of 3): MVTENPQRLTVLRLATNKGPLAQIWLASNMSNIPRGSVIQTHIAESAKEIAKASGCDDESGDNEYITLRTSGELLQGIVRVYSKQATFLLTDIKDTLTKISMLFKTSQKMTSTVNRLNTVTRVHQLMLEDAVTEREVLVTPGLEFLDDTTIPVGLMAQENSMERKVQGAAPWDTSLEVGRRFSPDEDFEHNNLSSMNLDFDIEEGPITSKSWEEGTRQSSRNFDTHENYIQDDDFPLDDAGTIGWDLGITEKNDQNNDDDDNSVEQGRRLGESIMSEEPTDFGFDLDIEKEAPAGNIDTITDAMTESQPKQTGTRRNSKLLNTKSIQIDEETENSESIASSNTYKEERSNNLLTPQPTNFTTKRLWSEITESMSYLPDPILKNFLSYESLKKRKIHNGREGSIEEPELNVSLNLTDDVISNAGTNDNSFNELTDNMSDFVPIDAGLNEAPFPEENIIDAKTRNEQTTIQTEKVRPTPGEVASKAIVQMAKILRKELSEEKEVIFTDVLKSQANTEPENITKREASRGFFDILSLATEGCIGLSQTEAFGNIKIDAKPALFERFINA

[2] = molecular target: T2, cohesin (Smc3 K1004C, Smc1, Scc1-StrepII) (S. cerevisiae, UniProt P32908 1-1225; P47037 1-1230; Q12158 1-566, K1004C)
T2 construct: Smc1, cohesin subunit, S. cerevisiae; Smc3, cohesin subunit, S. cerevisiae; Scc1 (kleisin subunit of cohesin), S. cerevisiae; Tied to the cross-linking experiment by its substitution; also called cohesin (Smc1, Smc3, and Scc1); source: prepared as described in Collier et al., 2020 (pACEbac1i plasmid); purified; copies: + +
T2 sequence (P32908 whole entry, stated change not applied, chain 1 of 3): as the sequence (P32908 whole entry E1102C, chain 1 of 3) above, with C1102E counted along it
T2 sequence (P47037 whole entry K1004C, chain 2 of 3): as the sequence (P47037 whole entry, chain 2 of 3) above, with K1004C counted along it
T2 sequence (Q12158 whole entry, chain 3 of 3): as the sequence (Q12158 whole entry, chain 3 of 3) above

[3] = molecular target: T3, cohesin (Smc1, Smc3 S72C, Scc1-StrepII) (S. cerevisiae, UniProt P32908 1-1225; P47037 1-1230; Q12158 1-566, S72C)
T3 construct: Smc1, cohesin subunit, S. cerevisiae; Smc3, cohesin subunit, S. cerevisiae; Scc1 (kleisin subunit of cohesin), S. cerevisiae; Tied to the cross-linking experiment by its substitution; also called cohesin (Smc1, Smc3, and Scc1); source: prepared as described in Collier et al., 2020 (pACEbac1i plasmid); purified; copies: + +
T3 sequence (P32908 whole entry, chain 1 of 3): as the sequence (P32908 whole entry E1102C, chain 1 of 3) above, with C1102E counted along it
T3 sequence (P47037 whole entry S72C, chain 2 of 3): as the sequence (P47037 whole entry, chain 2 of 3) above, with S72C counted along it
T3 sequence (Q12158 whole entry, chain 3 of 3): as the sequence (Q12158 whole entry, chain 3 of 3) above

B1: Scc2 133-1493-StrepII T1281C (domain or fragment, S. cerevisiae, UniProt Q04002 133-1493, looked up)
chain: KSEIVSRPEAKHKLESVTSNAGNLSFNDNSSNKKTKTSTGVTMTQANLAEQYLNDLKNILDIVGFDQNSAEIGNIEYWLQLPNKKFVLTTNCLTKLQMTIKNITDNPQLSNSIEITWLLRLLDVMVCNIKFSKSSLKMGLDDSMLRYIALLSTIVLFNIFLLGKNDSNLHRESYIMEPVNFLSDLIESLKILTIEYGSLKIEFDTFQEALELLPKYIRNGPFLDDNVTAKLVYIFSDLLMNNDIEATTNIQFQSFWDNVKRISSDILVSLFGSFDQQRGFIIEELLSHIEKLPTKRIQKKLRKVGNQNIYITDFTFTLMSMLENINCYSFCNQMKDIAPENIDLLKNEYKKQEEFLFNIVEHINDTILERFFKNPSALRYVIDNFVQDLLLLISSPQWPVTEKILSSLLKRLLSVYSPSMQVSANIETICLQLIGNIGSTIFDIKCSTRDHEDNNLIKMINYPETLPHFFKSFEECIAYNETIKCRRSATRFLWNLRLGTILILEEYTKDAKEQIITVDNELKKILEQIKDGGLGPELENREADFSTIKLDYFSILHAFELLNLYDPYLKLILSLLAKDKIKLRSTAIKCLSMLASKDKVILSNPMVKETIHRRLNDSSASVKDAILDLVSINSSYFEFYQQINNNYNDDSIMVRKHVLRINEKMYDETNDIVTKVYVIARILMKIEDEEDNIIDMARLILLNRWILKVHEVLDQPEKLKEISSSVLLVMSRVAIMNEKCSQLFDLFLNFYLLNKEAHSKEAYDKITHVLTILTDFLVQKIVELNSDDTNEKNSIVDKQNFLNLLAKFADSTVSFLTKDHITALYPYMVSDEKSDFHYYILQVFRCTFEKLANFKQKFLYDLETTLLSRLPKMNVREIDEAMPLIWSVATHRHDTARVAKACSSCLSHLHPYINKANNEEAAIVVDGKLQRLIYLSTGFARFCFPKPSNDKIAFLQEGETLYEHITKCLLVLSKDKITHVIRRVAVKNLTKLCGNHPKLFNSRHVLHLLDKEFQSDQLDIKLVILESLYDLFLLEERKSVRNTGVNSTLSSNSILKKKLLKTNRVEFANDGVCSALATRFLDNILQLCLLRDLKNSLVAIRLLKLILKFGYTNPSHSIPTVIALFASTSQYIRHVAYELLEDLFEKYECLVFSSLSRGVTKAIHYSIHTDEKYYYKHDHFLSLLEKLCGTGKKNGPKFFKVLKRIMQSYLDDITDLTSTNSSVQKSIFVLCTNISNITFVSQYDLVSLLKTIDLTTDRLKEVIMDEIGDNVSSLSVSEEKLSGIILIQLSLQDLGTYLLHLYGLRDDVLLLDIVEESELKNKQLPAKKPDISKFSAQLENIEQYSSNGKLLTYFRKHVKDT
notes: Scc2, cohesin loader subunit, S. cerevisiae, residues 133-1493; pACEbac1 is a baculovirus transfer vector, so insect cells are surmised; also called Scc2T1281C; source: prepared as described in Collier et al., 2020 (pACEbac1 plasmid); purified
binding result [1]: binds

B2: Scc2 133-1493-StrepII D369C (domain or fragment, S. cerevisiae, UniProt Q04002 133-1493, looked up)
chain: B1 chain with D237C, C1149T
notes: Scc2, cohesin loader subunit, S. cerevisiae, residues 133-1493; also called Scc2D369C; source: prepared as described in Collier et al., 2020 (pACEbac1 plasmid); purified
binding result [2]: binds

B3: Scc2 133-1493-StrepII E819C (domain or fragment, S. cerevisiae, UniProt Q04002 133-1493, looked up)
chain: B1 chain with E687C, C1149T
notes: Scc2, cohesin loader subunit, S. cerevisiae, residues 133-1493; also called Scc2E819C; source: prepared as described in Collier et al., 2020 (pACEbac1 plasmid); purified
binding result [3]: binds
